Target: T1, FBXO44^FBA (Homo sapiens, UniProt Q9H4M3)
T1 construct: we expressed and purified only this domain for all in vitro studies; 6xHis (N, cleaved yes); MBP (N, cleaved yes); made in house; host or cells: Escherichia coli Rosetta BL21 (λDE3)
T1 sequence (Q9H4M3 71-252 limits assumed): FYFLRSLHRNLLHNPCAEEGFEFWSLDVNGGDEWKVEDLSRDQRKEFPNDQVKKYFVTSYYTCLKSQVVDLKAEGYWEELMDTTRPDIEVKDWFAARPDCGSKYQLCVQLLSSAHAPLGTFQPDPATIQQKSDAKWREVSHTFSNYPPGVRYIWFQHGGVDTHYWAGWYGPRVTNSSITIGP
Experiment: Peptide microarray (PEPperPRINT), FLAG-FBXO44^FBA binding
Settings: Table S1; RGS2^5–16 single-residue substitution; 2 μg/ml FBXO44^FBA overnight at 4 °C, PBS 0.005% Tween pH 7.4, anti-FLAG DyLight800 fluorescence; three independent experiments with three technical replicates each
Excerpt: To do so, we utilized a custom peptide microarray (PEPperPRINT GmbH). The design of this array was twofold: (1) substitution at each position with every other natural eukaryotic amino acid; (2) truncation of the peptide from the C terminus. We assessed the binding of FLAG-FBXO44^FBA to the array utilizing fluorescence immunoreactivity corresponding to the amount of FLAG-FBXO44^FBA bound. […] Substitutions at Asp^12 were not only tolerated but also seemed to improve binding in every case (Fig. 3B). This, combined with the fact that substituting any residue in His^11–Met^16 with Arg, and in most cases with Lys, improved FBXO44^FBA binding, indicating the presence of negative charges at the binding interface.
Figure 2 Systematic mutation of the RGS2 degron alters FBXO44^FBA binding. A custom microarray (PEPperPRINT) was designed where each position of the RGS2^5–16 peptide was substituted for each natural amino acid. We also included truncated peptides on the array. This was incubated with purified FBXO44^FBA and probed with α-FLAG. A, a representative scan of a peptide microarray (top) and a truncated peptide (bottom). B, heatmap of mean fluorescence of quantified microarray scans. The scale represents the mean fluorescence in percentage points across all replicates, normalized to the signal obtained with the original residue at each position. C, heatmap of standard deviation of quantified microarray scans. The scale represents the standard deviation in percentage points across all replicates. […] Residues are color-coded based on properties: blue, positive charge; red, negative charge; orange, uncharged polar; green, hydrophobic; yellow, Cys (C); bright green, Pro (P); and black, Gly (G). […] Results of three independent experiments with three technical replicates each. For a statistical significance summary, see Table S1. FBXO44, F-box only protein 44; RGS2, regulator of G protein signaling 2.
Figure 3 Effects of RGS2^5–16 peptide residue changes on FBXO44^FBA binding. Data are presented as % FLAG immunoreactivity, as compared with the parent peptide residue. […] The original residue is marked in each graph with a vertical dotted line. Boxes extend from the 25th to 75th percentile with a line marking the median. Whiskers extend to the minimum and maximum. Results of three independent experiments with three technical replicates each. Data were analyzed by two-way ANOVA, with Tukey's post hoc test for pairwise comparison (simple effect within columns). Statistical significance is summarized in Table S1 and color-coded according to the legend. FBXO44, F-box only protein 44; RGS2, regulator of G protein signaling 2.
The microarray slide was seated into the incubation tray according to PEPperPRINT's instructions. The array well was then incubated in washing buffer (PBS) with 0.005% Tween (Sigma; P1379, pH 7.4) at room temperature for 15 min on an orbital shaker. Washing buffer was aspirated, and the array was then incubated with Rockland blocking buffer at room temperature for 30 min on an orbital shaker. Blocking buffer was then aspirated, and the array was incubated in staining buffer (washing buffer with 10% Rockland blocking buffer) at room temperature for 15 min on an orbital shaker. Staining buffer was aspirated, and purified FBXO44 FBA domain diluted to 2 μg/ml in staining buffer was added. The array was then placed on an orbital shaker overnight at 4 °C. The FBA domain solution was removed, and an array was washed three times with washing buffer. After the third array was incubated in staining buffer for 15 min at 4 °C on an orbital shaker. The array was then incubated with antibody dilution (anti-FLAG DyLight800 and anti-HA DyLight680, both diluted 1:2000 in staining buffer) for 45 min at 4° C on an orbital shaker. The array was then washed three times with washing buffer. […]

Substance	Mean % difference from parent peptide (FLAG immunoreactivity) [%]
A8R: array RGS2^5–16 peptide, A8 substituted by R (MFLRVQHDCRPM; UniProt P41220 5-16, looked up, variant A8R)	27.84
C13A: array RGS2^5–16 peptide, C13 substituted by A (MFLAVQHDARPM; UniProt P41220 5-16, looked up, variant C13A)	-72.59
C13D: array RGS2^5–16 peptide, C13 substituted by D (MFLAVQHDDRPM; UniProt P41220 5-16, looked up, variant C13D)	-75.39
C13E: array RGS2^5–16 peptide, C13 substituted by E (MFLAVQHDERPM; UniProt P41220 5-16, looked up, variant C13E)	-87.12
C13F: array RGS2^5–16 peptide, C13 substituted by F (MFLAVQHDFRPM; UniProt P41220 5-16, looked up, variant C13F)	-82.91
C13G: array RGS2^5–16 peptide, C13 substituted by G (MFLAVQHDGRPM; UniProt P41220 5-16, looked up, variant C13G)	-89.67
C13H: array RGS2^5–16 peptide, C13 substituted by H (MFLAVQHDHRPM; UniProt P41220 5-16, looked up, variant C13H)	-83.62
C13I: array RGS2^5–16 peptide, C13 substituted by I (MFLAVQHDIRPM; UniProt P41220 5-16, looked up, variant C13I)	-87.24
C13K: array RGS2^5–16 peptide, C13 substituted by K (MFLAVQHDKRPM; UniProt P41220 5-16, looked up, variant C13K)	-53.92
C13L: array RGS2^5–16 peptide, C13 substituted by L (MFLAVQHDLRPM; UniProt P41220 5-16, looked up, variant C13L)	-88.83
C13M: array RGS2^5–16 peptide, C13 substituted by M (MFLAVQHDMRPM; UniProt P41220 5-16, looked up, variant C13M)	-88.01
C13N: array RGS2^5–16 peptide, C13 substituted by N (MFLAVQHDNRPM; UniProt P41220 5-16, looked up, variant C13N)	-85.38
C13P: array RGS2^5–16 peptide, C13 substituted by P (MFLAVQHDPRPM; UniProt P41220 5-16, looked up, variant C13P)	-84.68
C13Q: array RGS2^5–16 peptide, C13 substituted by Q (MFLAVQHDQRPM; UniProt P41220 5-16, looked up, variant C13Q)	-77.02
C13R: array RGS2^5–16 peptide, C13 substituted by R (MFLAVQHDRRPM; UniProt P41220 5-16, looked up, variant C13R)	35.61
C13S: array RGS2^5–16 peptide, C13 substituted by S (MFLAVQHDSRPM; UniProt P41220 5-16, looked up, variant C13S)	-87.05
C13T: array RGS2^5–16 peptide, C13 substituted by T	-86.63

Substance	Mean % difference from parent peptide (FLAG immunoreactivity) [%]
C13V: array RGS2^5–16 peptide, C13 substituted by V (MFLAVQHDVRPM; UniProt P41220 5-16, looked up, variant C13V)	-88.12
C13W: array RGS2^5–16 peptide, C13 substituted by W (MFLAVQHDWRPM; UniProt P41220 5-16, looked up, variant C13W)	-46.69
C13Y: array RGS2^5–16 peptide, C13 substituted by Y (MFLAVQHDYRPM; UniProt P41220 5-16, looked up, variant C13Y)	-42.98
D12C: array RGS2^5–16 peptide, D12 substituted by C	43.97
D12F: array RGS2^5–16 peptide, D12 substituted by F (MFLAVQHFCRPM; UniProt P41220 5-16, looked up, variant D12F)	34.22
D12G: array RGS2^5–16 peptide, D12 substituted by G (MFLAVQHGCRPM; UniProt P41220 5-16, looked up, variant D12G)	28.74
D12H: array RGS2^5–16 peptide, D12 substituted by H (MFLAVQHHCRPM; UniProt P41220 5-16, looked up, variant D12H)	37.64
D12I: array RGS2^5–16 peptide, D12 substituted by I (MFLAVQHICRPM; UniProt P41220 5-16, looked up, variant D12I)	42.93
D12K: array RGS2^5–16 peptide, D12 substituted by K (MFLAVQHKCRPM; UniProt P41220 5-16, looked up, variant D12K)	124.2
D12L: array RGS2^5–16 peptide, D12 substituted by L (MFLAVQHLCRPM; UniProt P41220 5-16, looked up, variant D12L)	31.38
D12M: array RGS2^5–16 peptide, D12 substituted by M (MFLAVQHMCRPM; UniProt P41220 5-16, looked up, variant D12M)	42.32
D12N: array RGS2^5–16 peptide, D12 substituted by N (MFLAVQHNCRPM; UniProt P41220 5-16, looked up, variant D12N)	55.82
D12P: array RGS2^5–16 peptide, D12 substituted by P (MFLAVQHPCRPM; UniProt P41220 5-16, looked up, variant D12P)	66.54
D12Q: array RGS2^5–16 peptide, D12 substituted by Q (MFLAVQHQCRPM; UniProt P41220 5-16, looked up, variant D12Q)	59.62
D12S: array RGS2^5–16 peptide, D12 substituted by S (MFLAVQHSCRPM; UniProt P41220 5-16, looked up, variant D12S)	59.59
D12T: array RGS2^5–16 peptide, D12 substituted by T (MFLAVQHTCRPM; UniProt P41220 5-16, looked up, variant D12T)	32.23

— PMC12554172, “Systematic analysis of the RGS2 degron reveals characteristics of substrate recognition by the F-box protein FBXO44” (The Journal of Biological Chemistry, 2025)
